# Target: T1, HLA-A*0201 molecule expressed on the human tumoral cell T2 (human)
# T1 construct: Empty or peptide-receptive class I molecule on T2 cells; surface level read with anti-HLA-A2 antibody BB7.2-PE after incubation with the peptide; also called HLA-A2
# Experiment: T2 cell HLA-A2 FACS (BB7.2-PE), peptide 10 µM
# Experimental: (§1) T2 cells (2·10⁵ cells per well) are incubated with decreasing concentrations of peptides from 100 μM to 0.1 μM in a AIMV medium supplemented with 100 ng/μl of human β2m at 37° C. for 16 hours. Cells are then washed two times and marked with the anti-HLA-A2 antibody coupled to PE (clone BB7.2, BD Pharmagen).
# (§2) The relative affinity is then determined as follows: […]
row,Binder,HLA-A2 labelling as % of reference peptide HIV pol 589-597 at 100 µM [%]
1,"KVVEFLAML [reference human peptide derived from MAGE C1, MAGE C1H (KVVEFLAML)]",7.84
2,ITSDVPFSV [antigenic peptide PMEL-B (ITSDVPFSV)],7.93
3,KLVEWLAML [antigenic peptide MAGE C1B (KLVEWLAML)],21.4
4,"GLPPDVQRV [reference human peptide derived from MMP2, MMP2-H (GLPPDVQRV)]",66.3
5,RLLEETDLV [antigenic peptide ERBB2-1B (RLLEETDLV)],26.4
6,SLPPDVQQV [antigenic peptide MMP2-B (SLPPDVQQV)],96
7,YLAVFLPIV [antigenic peptide STEAP-B2 (YLAVFLPIV)],27.7
8,VMLGVVFGV [antigenic peptide ERBB2-3B1 (VMLGVVFGV)],26.7
9,VMLGVVFGI [antigenic peptide ERBB2-3B3 (VMLGVVFGI)],16.6
10,MLAVFLPLV [antigenic peptide STEAP-B1 (MLAVFLPLV)],45.1
11,ILLGVVFGI [antigenic peptide ERBB2-3B4 (ILLGVVFGI)],138
12,"MIAVFLPIV [reference human peptide derived from STEAP, STEAP-H (MIAVFLPIV)]",14.9

# Target: T1, HLA-A*0201 molecule expressed on the …
# Experiment: T2 cell HLA-A2 FACS (BB7.2-PE); ratio of 20% concentrations against HIV pol 589-597
# Experimental: as §1, §2
row,Binder,Relative affinity
1,"KVVEFLAML [reference human peptide derived from MAGE C1, MAGE C1H (KVVEFLAML)]",1.94
2,ITSDVPFSV [antigenic peptide PMEL-B (ITSDVPFSV)],0.59
3,KLVEWLAML [antigenic peptide MAGE C1B (KLVEWLAML)],0.31
4,"GLPPDVQRV [reference human peptide derived from MMP2, MMP2-H (GLPPDVQRV)]",0.06
5,RLLEETDLV [antigenic peptide ERBB2-1B (RLLEETDLV)],0.26
6,SLPPDVQQV [antigenic peptide MMP2-B (SLPPDVQQV)],0.03
7,YLAVFLPIV [antigenic peptide STEAP-B2 (YLAVFLPIV)],0.27
8,VMLGVVFGV [antigenic peptide ERBB2-3B1 (VMLGVVFGV)],0.25
9,VMLGVVFGI [antigenic peptide ERBB2-3B3 (VMLGVVFGI)],0.35
10,MLAVFLPLV [antigenic peptide STEAP-B1 (MLAVFLPLV)],0.16
11,ILLGVVFGI [antigenic peptide ERBB2-3B4 (ILLGVVFGI)],0.03
12,"MIAVFLPIV [reference human peptide derived from STEAP, STEAP-H (MIAVFLPIV)]",1.08

# Target: T1, HLA-A*0201 molecule expressed on the …
# Experiment: T2 cell HLA-A2 FACS (BB7.2-PE), peptide 0.1 µM
# Experimental: as §1, §2
row,Binder,HLA-A2 labelling as % of reference peptide HIV pol 589-597 at 100 µM [%]
1,"KVVEFLAML [reference human peptide derived from MAGE C1, MAGE C1H (KVVEFLAML)]",5.77
2,ITSDVPFSV [antigenic peptide PMEL-B (ITSDVPFSV)],4.69
3,KLVEWLAML [antigenic peptide MAGE C1B (KLVEWLAML)],2.45
4,"GLPPDVQRV [reference human peptide derived from MMP2, MMP2-H (GLPPDVQRV)]",5.41
5,RLLEETDLV [antigenic peptide ERBB2-1B (RLLEETDLV)],-1.18
6,SLPPDVQQV [antigenic peptide MMP2-B (SLPPDVQQV)],4.69
7,YLAVFLPIV [antigenic peptide STEAP-B2 (YLAVFLPIV)],-0.34
8,VMLGVVFGV [antigenic peptide ERBB2-3B1 (VMLGVVFGV)],-16
9,VMLGVVFGI [antigenic peptide ERBB2-3B3 (VMLGVVFGI)],-16.3
10,MLAVFLPLV [antigenic peptide STEAP-B1 (MLAVFLPLV)],6.67
11,ILLGVVFGI [antigenic peptide ERBB2-3B4 (ILLGVVFGI)],-11.6
12,"MIAVFLPIV [reference human peptide derived from STEAP, STEAP-H (MIAVFLPIV)]",0.11

# Target: T1, HLA-A*0201 molecule expressed on the …
# Experiment: T2 cell HLA-A2 FACS (BB7.2-PE), peptide 1 µM
# Experimental: as §1, §2
row,Binder,HLA-A2 labelling as % of reference peptide HIV pol 589-597 at 100 µM [%]
1,"KVVEFLAML [reference human peptide derived from MAGE C1, MAGE C1H (KVVEFLAML)]",7.12
2,ITSDVPFSV [antigenic peptide PMEL-B (ITSDVPFSV)],3.62
3,KLVEWLAML [antigenic peptide MAGE C1B (KLVEWLAML)],3.97
4,"GLPPDVQRV [reference human peptide derived from MMP2, MMP2-H (GLPPDVQRV)]",17.8
5,RLLEETDLV [antigenic peptide ERBB2-1B (RLLEETDLV)],2.86
6,SLPPDVQQV [antigenic peptide MMP2-B (SLPPDVQQV)],24.6
7,YLAVFLPIV [antigenic peptide STEAP-B2 (YLAVFLPIV)],4.87
8,VMLGVVFGV [antigenic peptide ERBB2-3B1 (VMLGVVFGV)],-12.9
9,VMLGVVFGI [antigenic peptide ERBB2-3B3 (VMLGVVFGI)],-10.6
10,MLAVFLPLV [antigenic peptide STEAP-B1 (MLAVFLPLV)],8.92
11,ILLGVVFGI [antigenic peptide ERBB2-3B4 (ILLGVVFGI)],26.1
12,"MIAVFLPIV [reference human peptide derived from STEAP, STEAP-H (MIAVFLPIV)]",-4.47

# Target: T1, HLA-A*0201 molecule expressed on the …
# Experiment: T2 cell HLA-A2 FACS (BB7.2-PE), peptide 100 µM
# Experimental: as §1, §2
row,Binder,HLA-A2 labelling as % of reference peptide HIV pol 589-597 at 100 µM [%]
1,"KVVEFLAML [reference human peptide derived from MAGE C1, MAGE C1H (KVVEFLAML)]",32.3
2,ITSDVPFSV [antigenic peptide PMEL-B (ITSDVPFSV)],74.8
3,KLVEWLAML [antigenic peptide MAGE C1B (KLVEWLAML)],109
4,"GLPPDVQRV [reference human peptide derived from MMP2, MMP2-H (GLPPDVQRV)]",154
5,RLLEETDLV [antigenic peptide ERBB2-1B (RLLEETDLV)],297
6,SLPPDVQQV [antigenic peptide MMP2-B (SLPPDVQQV)],131
7,YLAVFLPIV [antigenic peptide STEAP-B2 (YLAVFLPIV)],97.9
8,VMLGVVFGV [antigenic peptide ERBB2-3B1 (VMLGVVFGV)],122
9,VMLGVVFGI [antigenic peptide ERBB2-3B3 (VMLGVVFGI)],179
10,MLAVFLPLV [antigenic peptide STEAP-B1 (MLAVFLPLV)],132
11,ILLGVVFGI [antigenic peptide ERBB2-3B4 (ILLGVVFGI)],265
12,"MIAVFLPIV [reference human peptide derived from STEAP, STEAP-H (MIAVFLPIV)]",102

# Target: T1, HLA-A*0201 molecule expressed on the …
# Experiment: T2 cell HLA-A2 FACS (BB7.2-PE), peptide titration
# Experimental: as §1, §2
row,Binder,Conc. inducing 20% of HLA-A2 expression [µM]
1,"KVVEFLAML [reference human peptide derived from MAGE C1, MAGE C1H (KVVEFLAML)]",60.1
2,ITSDVPFSV [antigenic peptide PMEL-B (ITSDVPFSV)],18.2
3,KLVEWLAML [antigenic peptide MAGE C1B (KLVEWLAML)],30.9
4,"GLPPDVQRV [reference human peptide derived from MMP2, MMP2-H (GLPPDVQRV)]",1.76
5,RLLEETDLV [antigenic peptide ERBB2-1B (RLLEETDLV)],9.5
6,SLPPDVQQV [antigenic peptide MMP2-B (SLPPDVQQV)],0.88
7,YLAVFLPIV [antigenic peptide STEAP-B2 (YLAVFLPIV)],8.22
8,VMLGVVFGV [antigenic peptide ERBB2-3B1 (VMLGVVFGV)],9
9,VMLGVVFGI [antigenic peptide ERBB2-3B3 (VMLGVVFGI)],12.5
10,MLAVFLPLV [antigenic peptide STEAP-B1 (MLAVFLPLV)],5
11,ILLGVVFGI [antigenic peptide ERBB2-3B4 (ILLGVVFGI)],0.9
12,"MIAVFLPIV [reference human peptide derived from STEAP, STEAP-H (MIAVFLPIV)]",33.5
